From US11021533

Tests used:
[1] = molecular target: all ZIKV strains tested (MR 766, Dakar 41519, Malaysia P6740, H/PF/2013, Brazil Paraiba 2015); assay: cell-based or functional assay
[2] = molecular target: ZIKV strain H/PF/2013 (French Polynesia, 2013) virus (Zika virus, strain H/PF/2013); assay: cell-based or functional assay

B1: ZIKV-117 (antibody, V domains shown)
VH: QVQLVESGGGVVRPGGSLRLSCAASGFTFKNYGIHWVRQAPGKGPEWVAFVRYDGNNKYYADSVKGRFTISRDNAKNTLSLQMNSLRVEDTAVYFCARDPETFGGFDYWGQGTLVTVSS
VL: ETVMTQSPATLSVSPGERGTLSCRASESVSSNLAWYQQKPGKAPRLLIYGASTRATGIPDRFSGSGSGTEFTLTISSLQSEDFAVYYCQQYYYSPRTFGQGTKVEVK
B1 was tested, and the FRNT50 (focus reduction neutralization test on Vero cells) [1] was 5 to 25 ng/mL.

B2: ZIKV-88 (antibody, V domains shown)
VH: QVQLLESGGGVVQPGRSLRLSCVASGLTFSTSAMHWVRQAPGKGLEWVAVISYDGSYKFYADSVRDQFTISRDNSKTTLYLQMDGLTPEDTAVYYCARGYNDDSSGSYWYFDLWGRGTLVTVSS
VL: QSVLTQPPSVSAAPGQKVTMSCSGSSSNIGSNFVSWYQQLPGTAPKVLIFDNNQRPSGIPDRFSGSKSGTSATLAITGLQPGDEAVYHCGTWDSSLTFAVFGGGTKLTVL
B2 showed an FRNT50 (focus reduction neutralization test on Vero cells) [2] of 420 ng/mL.
